Experimental data published in patent publication US20220033438A1 (GENOIMMUNE THERAPEUTICS, published 2022).

B1: wild-type polypeptide KLMGIVNKV (SEQ ID NO: 6) (peptide)
peptide: KLMGIVNKV
B2: KLMGIVYKL polypeptide (SEQ ID NO: 4) (peptide)
peptide: KLMGIVYKL
notes: Synthetic 9-mer; also called mutated polypeptide
B3: KLMGIVYKV polypeptide (SEQ ID NO: 2) (peptide)
peptide: KLMGIVYKV
notes: Synthetic 9-mer made by solid phase synthesis; It is the fragment of the mutated (N136Y) Twist neighbor protein; also called mutated polypeptide
B4: KMMGIVYKL polypeptide (SEQ ID NO: 5) (peptide)
peptide: KMMGIVYKL
notes: as for B2

How the values were obtained:
HLA-A0201 on T2 cells [1] = molecular target: T1, HLA-A0201 on T2 cells (human); test: T2 cell affinity test, 100 uM peptide, flow cytometry; FI=(MFI sample-MFI background)/MFI background
T1 construct: MHC class I molecule on TAP-deficient T2 cells; also called HLA-A0201 antigen
Method: (§1) 2 duplicate wells per group were used. […] The cells were collected by centrifugation at 200 g for 5 minutes. […] The mean fluorescence intensity (MFI) was then detected and analyzed by flow cytometry (BD FACSJazz™) and its software, as shown in FIG. 1.

HLA-A0201 on T2 cells [2] = molecular target: T1, HLA-A0201 on T2 cells; test: T2 cell affinity test, 100 uM peptide overnight with human b2m, anti-HLA-A0201 FITC staining, flow cytometry
Method: as §1

Row | Binder | FI (fluorescence index) (HLA-A0201 on T2 cells [1]) | MFI (HLA-A0201 on T2 cells [2])
1 | B1 | 1.89 | 648
2 | B2 | 2.23 | 724
3 | B3 | 1.97 | 666
4 | B4 | 2.09 | 692
